Data taken from patent publication US20170260530, “APTAMERS FOR PURIFYING AND QUANTIFYING GELSOLIN AND ITS VARIANTS” (Council of Scientific & Industrial Research, published 2017).

B1: L16F (ssDNA)
DNA: TAGGGAAGAGAAGGACATATGATAGGGGGATAGGAGGGGGTGGGATTGGGGGATTGACTAGTACATGACCACTTGA
B2: L26F (ssDNA)
DNA: TAGGGAAGAGAAGGACATATGATGGGGCACTGGAGGGTGGGGGAGCGGGGGCGGTTGACTAGTACATGACCACTTGA
B3: 10.10R (ssDNA)
DNA: TCAAGTGGTCATGTACTAGTCAAGCACTTTCGCTGCTCGCTGGCGCCGCGCCCATCATATGTCCTTCTCTTCCCTA
B4: L24F (ssDNA)
DNA: TAGGGAAGAGAAGGACATATGATCGGGGGGCGGGTATTGGGGGCCGGGGGGATTGACTAGTACATGACCACTTGA

Columns and labels:
Gelsolin (GSN) [1] = target: T1, Gelsolin (GSN) (Homo sapiens, UniProt P06396 SEQ:28-782); test: microtiter (ELISA-type) assay, immobilized aptamer, 100 nM gelsolin; selection buffer with 2 mM CaCl2, 5 mM MgCl2; RT; details: tags: tagless; expressed from pET303/CT-His vector in E. coli BL21(DE3); label: biotin
Gelsolin (GSN) [2] = target: T1, Gelsolin (GSN); test: microtiter (ELISA-type) assay, immobilized aptamer 1.56-100 nM, 100 nM gelsolin; 25 mM Tris pH 8, 150 mM NaCl, 2 mM CaCl2, 5 mM MgCl2, 10 mM KCl; RT; details: tags: tagless; expressed from pET303/CT-His vector in E. coli BL21(DE3); label: biotin

T1 sequence (P06396 28-782): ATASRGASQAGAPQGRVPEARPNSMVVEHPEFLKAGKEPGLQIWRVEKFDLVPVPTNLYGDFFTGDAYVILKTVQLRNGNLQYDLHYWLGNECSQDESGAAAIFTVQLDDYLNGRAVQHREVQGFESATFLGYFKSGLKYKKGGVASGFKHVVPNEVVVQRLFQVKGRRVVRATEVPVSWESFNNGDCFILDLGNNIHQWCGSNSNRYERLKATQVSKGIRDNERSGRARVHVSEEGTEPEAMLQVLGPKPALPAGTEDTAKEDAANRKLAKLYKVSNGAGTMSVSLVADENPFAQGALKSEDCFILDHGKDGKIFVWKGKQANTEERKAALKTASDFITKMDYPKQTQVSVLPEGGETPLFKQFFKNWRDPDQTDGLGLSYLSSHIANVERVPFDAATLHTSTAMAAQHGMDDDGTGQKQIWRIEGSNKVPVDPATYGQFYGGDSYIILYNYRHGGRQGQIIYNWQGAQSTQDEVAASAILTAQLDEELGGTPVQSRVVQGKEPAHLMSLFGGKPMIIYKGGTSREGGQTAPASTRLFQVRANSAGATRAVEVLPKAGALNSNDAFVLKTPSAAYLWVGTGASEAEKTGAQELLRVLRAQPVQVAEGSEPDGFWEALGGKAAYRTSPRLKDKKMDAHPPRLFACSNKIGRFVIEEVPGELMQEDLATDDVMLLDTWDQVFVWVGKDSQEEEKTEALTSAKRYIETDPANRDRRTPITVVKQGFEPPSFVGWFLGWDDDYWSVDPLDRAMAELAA

| Binder | Kd (Gelsolin (GSN) [1]) | Kd (Gelsolin (GSN) [2]) |
| --- | --- | --- |
| B1 | 12.7 nM |  |
| B2 | 15.3 nM |  |
| B3 |  | 7.2 nM |
| B4 | 15.7 nM |  |
